Measured values reported in PMC9569552 (International Journal of Molecular Sciences, 2022).

Target: T1, antigen c-MET (Homo sapiens (assumed), UniProt P08581)
T1 construct: c-MET used as antigen in the ForteBio Octet experiment; the construct of the antigen is unknown; also called mesenchymal-epithelial transition protein
Assay: BLI; ForteBio Octet; who was immobilised and the conditions not given; KD from ForteBio Data Analysis Software 8.0; values compared 'if normalized to the same number of epitope of c-MET'

T1 sequence (P08581 25-1390): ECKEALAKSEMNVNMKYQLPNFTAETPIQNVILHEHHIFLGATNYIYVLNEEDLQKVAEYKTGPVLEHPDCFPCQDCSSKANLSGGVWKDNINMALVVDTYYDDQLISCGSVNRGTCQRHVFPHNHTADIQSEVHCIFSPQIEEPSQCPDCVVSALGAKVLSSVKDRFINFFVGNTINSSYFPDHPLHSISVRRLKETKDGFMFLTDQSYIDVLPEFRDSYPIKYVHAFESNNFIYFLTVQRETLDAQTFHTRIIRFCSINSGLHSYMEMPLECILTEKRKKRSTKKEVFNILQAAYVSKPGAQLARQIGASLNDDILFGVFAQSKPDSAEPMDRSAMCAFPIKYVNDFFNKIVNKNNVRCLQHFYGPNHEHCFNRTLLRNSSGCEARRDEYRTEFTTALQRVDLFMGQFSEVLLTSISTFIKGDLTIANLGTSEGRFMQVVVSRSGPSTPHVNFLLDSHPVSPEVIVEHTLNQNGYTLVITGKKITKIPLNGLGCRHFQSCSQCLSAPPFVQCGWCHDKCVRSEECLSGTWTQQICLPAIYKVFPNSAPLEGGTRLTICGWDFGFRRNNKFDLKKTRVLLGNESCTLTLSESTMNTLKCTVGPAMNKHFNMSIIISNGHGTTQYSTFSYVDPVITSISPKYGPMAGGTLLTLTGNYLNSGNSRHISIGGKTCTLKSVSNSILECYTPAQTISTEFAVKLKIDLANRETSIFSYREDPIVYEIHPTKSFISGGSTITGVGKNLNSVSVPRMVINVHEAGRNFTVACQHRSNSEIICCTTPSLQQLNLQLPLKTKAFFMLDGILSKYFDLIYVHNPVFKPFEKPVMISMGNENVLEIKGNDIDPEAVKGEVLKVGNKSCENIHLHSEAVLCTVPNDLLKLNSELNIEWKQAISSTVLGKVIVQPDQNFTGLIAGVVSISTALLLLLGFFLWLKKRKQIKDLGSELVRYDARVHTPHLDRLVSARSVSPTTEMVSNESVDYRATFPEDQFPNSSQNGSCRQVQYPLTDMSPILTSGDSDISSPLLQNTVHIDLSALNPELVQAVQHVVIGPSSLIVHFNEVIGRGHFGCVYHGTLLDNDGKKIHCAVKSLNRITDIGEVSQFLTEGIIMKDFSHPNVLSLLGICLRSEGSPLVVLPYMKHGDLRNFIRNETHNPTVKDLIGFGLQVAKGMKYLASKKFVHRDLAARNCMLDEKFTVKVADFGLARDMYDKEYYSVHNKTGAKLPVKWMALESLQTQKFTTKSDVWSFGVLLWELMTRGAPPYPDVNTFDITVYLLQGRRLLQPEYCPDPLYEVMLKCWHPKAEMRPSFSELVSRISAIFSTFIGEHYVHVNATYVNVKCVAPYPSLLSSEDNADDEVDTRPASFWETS

B1: Emibetuzumab-IgG4 (Emi-IgG4) antibody (antibody, V domains shown)
VH: QVQLVQSGAEVKKPGASVKVSCKASGYTFTDYYMHWVRQAPGQGLEWMGRVNPNRRGTTYNQKFEGRVTMTTDTSTSTAYMELRSLRSDDTAVYYCARANWLDYWGQGTTVTVSS
VL: DIQMTQSPSSLSASVGDRVTITCSVSSSVSSIYLHWYQQKPGKAPKLLIYSTSNLASGVPSRFSGSGSGTDFTLTISSLQPEDFATYYCQVYSGYPLTFGGGTKVEIK
notes: heavy chain of emibetuzumab, IgG4; disclosed in WO 2010/059654; kappa light chain of emibetuzumab; IgG4; also called emibetuzumab analog; source: 293F cells, transiently co-transfected, purified from the supernatant (Protein A); copies: 2 + 2
Question: With B1 as the binder, how does the Kd read?
Answer: Its Kd is 0.65 nM.
